Results published in patent US20100260668A1 (published 2010).
Where “and” joins values, the source holds several entries; their conditions need not be identical. Equal entries are not always repeated. One block for each binder: values may come before it.

Tests used:
[1] = molecular target: T1, CD-19 (UniProt P15391 20-291, limits assumed); experiment: Direct Bind ELISA, antigen on plate; C-terminal VD
T1 construct: construct unknown
T1 sequence (looked up): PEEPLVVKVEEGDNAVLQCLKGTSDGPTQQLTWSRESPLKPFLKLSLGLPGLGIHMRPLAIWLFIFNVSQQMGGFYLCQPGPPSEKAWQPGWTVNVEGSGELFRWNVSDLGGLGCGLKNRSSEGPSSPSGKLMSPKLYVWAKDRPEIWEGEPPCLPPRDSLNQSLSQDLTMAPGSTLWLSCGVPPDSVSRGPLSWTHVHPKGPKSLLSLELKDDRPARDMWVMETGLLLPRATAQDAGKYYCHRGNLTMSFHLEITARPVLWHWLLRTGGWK

[2] = molecular target: T2, DLL4 ECD/His tag (R&D 1506-D4-050) (UniProt Q9NR61 27-529); experiment: direct bind ELISA, DLL4 on plate; reference antibody
T2 construct: extracellular domain; Bought antigen coated on the ELISA plate; not shown: His tag

[3] = molecular target: CD22/FC (Siglec-2 ECD/FC chimera) (UniProt P20273 20-687); experiment: Direct Bind ELISA, antigen on plate
[4] = molecular target: T3, VEGF (VEGF 1-165 aa, R&D Systems 293-VE-010) (UniProt P15692 27-191); experiment: Direct bind ELISA, VEGF coated on plate; reference antibody printed beside DVD510
T3 construct: bought reagent; also called vascular endothelial growth factor

[5] = molecular target: T3, VEGF (VEGF 1-165 aa, R&D Systems …); experiment: Direct bind ELISA, VEGF coated on plate; reference antibody printed beside DVD503
[6] = molecular target: T3, VEGF (VEGF 1-165 aa, R&D Systems …); experiment: Direct bind ELISA, VEGF coated on plate; reference antibody printed beside DVD491
[7] = molecular target: T3, VEGF (VEGF 1-165 aa, R&D Systems …); experiment: Direct bind ELISA, VEGF coated on plate; reference antibody printed beside DVD497
[8] = molecular target: T3, VEGF (VEGF 1-165 aa, R&D Systems …); experiment: Direct bind ELISA, VEGF coated on plate; reference antibody printed beside DVD498
[9] = molecular target: T3, VEGF (VEGF 1-165 aa, R&D Systems …); experiment: Direct bind ELISA, VEGF coated on plate; reference antibody printed beside DVD504
[10] = molecular target: T3, VEGF (VEGF 1-165 aa, R&D Systems …); experiment: Direct bind ELISA, VEGF coated on plate; reference antibody printed beside DVD492
[11] = molecular target: T3, VEGF (VEGF 1-165 aa, R&D Systems …); experiment: Direct bind ELISA, VEGF coated on plate; reference antibody printed beside DVD509
[12] = molecular target: T4, VEGF (UniProt P15692 27-191, limits assumed); experiment: direct bind ELISA, reference antibody
T4 construct: bought antigen coated on the ELISA plate

[13] = molecular target: T1, CD-19; experiment: Direct Bind ELISA, antigen on plate; N-terminal VD
[14] = molecular target: T5, RON (UniProt Q04912 25-1400, limits assumed); experiment: flow cytometry on cells carrying the target, 2 ug/mL; parent antibody
T5 construct: whole, on cells; also called macrophage stimulating protein receptor tyrosine kinase; MSP receptor

[15] = molecular target: T6, RON (MSP Receptor ECD-His tag, R&D Systems 1947-MS-050) (UniProt Q04912 25-957, limits assumed); experiment: Direct bind ELISA on RON; reference antibody
T6 construct: extracellular domain; not shown: His tag

[16] = molecular target: T7, DLL4 (human, UniProt Q9NR61 27-685); experiment: flow cytometry on cells carrying the target, 2 ug/mL; parent antibody
T7 construct: whole, on cells; also called human DLL4

[17] = molecular target: T7, DLL4; experiment: flow cytometry on 293G-human DLL4 cells; reference antibody
[18] = molecular target: T8, NRP1 (UniProt O14786 22-923, limits assumed); experiment: flow cytometry on cells carrying the target, 2 ug/mL; parent antibody
T8 construct: whole, on cells; also called neuropilin 1

[19] = molecular target: T5, RON; experiment: flow cytometry on cells carrying the target, 2 ug/mL; N-terminal VD
[20] = molecular target: CD80/FC (B7-1 ECD/FC chimera) (UniProt P33681 35-242); experiment: Direct Bind ELISA, antigen on plate
CD80/FC (B7-1 ECD/FC chimera), sequence (P33681 35-242, change not shown): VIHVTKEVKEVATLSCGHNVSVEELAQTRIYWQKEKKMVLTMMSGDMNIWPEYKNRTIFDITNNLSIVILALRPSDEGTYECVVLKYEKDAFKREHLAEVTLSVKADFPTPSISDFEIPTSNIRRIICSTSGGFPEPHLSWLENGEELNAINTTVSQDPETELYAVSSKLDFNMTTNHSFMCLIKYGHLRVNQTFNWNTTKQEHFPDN

T3 sequence (P15692 other isoform, or with tags, fused parts or gaps limits assumed): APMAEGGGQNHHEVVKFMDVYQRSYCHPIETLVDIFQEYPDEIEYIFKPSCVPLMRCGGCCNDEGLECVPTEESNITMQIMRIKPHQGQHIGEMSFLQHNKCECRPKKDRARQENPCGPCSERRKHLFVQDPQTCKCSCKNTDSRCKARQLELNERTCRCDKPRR
T4 sequence (P15692 other isoform, or with tags, fused parts or gaps limits assumed): as above

EC50 [1]: 12.9 nM
B1: DVD001 (CD-20 and CD-19 DVD-Ig) (bispecific antibody, IgG1)
VH: QVQLQQPGAELVKPGASVKMSCKASGYTFTSYNMHWVKQTPGRGLEWIGAIYPGNGDTSYNQKFKGKATLTADKSSSTAYMQLSSLTSEDSAVYYCARSTYYGGDWYFNVWGAGTTVTVSAASTKGPQVQLQQSGAELVRPGSSVKISCKASGYAFSSYWMNWVKQRPGQGLEWIGQIWPGDGDTNYNGKFKGKATLTADESSSTAYMQLSSLASEDSAVYFCARRETTTVGRYYYAMDYWGQGTSVTVSS
VL: QIVLSQSPAILSPSPGEKVTMTCRASSSVSYIHWFQQKPGSSPKPWIYATSNLASGVPVRFSGSGSGTSYSLTISRVEAEDAATYYCQQWTSNPPTFGGGTKLEIKRTVAAPDILLTQTPASLAVSLGQRATISCKASQSVDYDGDSYLNWYQQIPGQPPKLLIYDASNLVSGIPPRFSGSGSGTDFTLNIHPVEKVDAATYHCQQSTEDPWTFGGGTKLEIKR
notes: Outer AB001, inner AB006; HC vector V1 (wild-type hIgG1 constant), LC vector V2 (kappa constant); also called DVD001H; DVD001L

EC50 [2]: 1.29 nM and 0.7 nM and 1.99 nM and 1.85 nM
B2: AB072 (antibody, human IgG1, kappa, V domains shown)
VH: EVQLQQSGPELVKPGASVKMSCKASGYTFTSYVINWVKQKPGQGLEWIGLINPYNDGTKYNEKFKVKATLTSDKSSSTAYMELSSLTSEDSAVYYCASYYYGSRYYFDYWGQGTTLTVSS
VL: DIQMTQSSSYLSVSLGGRVTITCKASDHINNWLAWYQQKPGNAPRLLISGATSLETGVPSRFSGSGSGKDYTLSITSLQTEDVATYYCQQYWSIPLTFGAGTKLELKR
notes: also called AB072-DLL-4

EC50 [3]: 3.44 nM
B3: AB008 (anti-CD-22 parent antibody) (antibody, IgG1, V domains shown)
VH: QVQLVQSGAEVKKPGSSVKVSCKASGYTFTSYWLHWVRQAPGQGLEWIGYINPRNDYTEYNQNFKDKATITADESTNTAYMELSSLRSEDTAFYFCARRDITTFYWGQGTTVTVSS
VL: DIQLTQSPSSLSASVGDRVTMSCKSSQSVLYSANHKNYLAWYQQKPGKAPKLLIYWASTRESGVPSRFSGSGSGTDFTFTISSLQPEDIATYYCHQYLSSWTFGGGTKLEIKR
notes: HC vector V1 (wild-type hIgG1 constant), LC vector V2 (kappa constant); also called AB008VH; AB008VL

EC50 [4]: 37.8 nM | EC50 [5]: 37.8 nM | EC50 [6]: 45.7 nM | EC50 [7]: 45.7 nM | EC50 [8]: 45.7 nM | EC50 [9]: 37.8 nM | EC50 [10]: 45.7 nM | EC50 [11]: 37.8 nM
B4: AB071 (antibody, human IgG1, kappa, L234A L235A, V domains shown)
VH: EVQLVESGGGLVQPGGSLRLSCAASGFTINASWIHWVRQAPGKGLEWVGAIYPYSGYTNYADSVKGRFTISADTSKNTAYLQMNSLRAEDTAVYYCARWGHSTSPWAMDYWGQGTLVTVSS
VL: DIQMTQSPSSLSASVGDRVTITCRASQVIRRSLAWYQQKPGKAPKLLIYAASNLASGVPSRFSGSGSGTDFTLTISSLQPEDFATYYCQQSNTSPLTFGQGTKVEIKR
notes: Parent anti-VEGF antibody

EC50 [12]: 35.4 nM and 26.6 nM
B5: AB071 (antibody, human IgG1, kappa, L234A L235A, V domains shown)
VH: B4 VH
VL: B4 VL

EC50 [13]: 0.07 nM
B6: DVD002 (CD-19 and CD-20 DVD-Ig) (bispecific antibody, IgG1)
VH: QVQLQQSGAELVRPGSSVKISCKASGYAFSSYWMNWVKQRPGQGLEWIGQIWPGDGDTNYNGKFKGKATLTADESSSTAYMQLSSLASEDSAVYFCARRETTTVGRYYYAMDYWGQGTSVTVSSASTKGPQVQLQQPGAELVKPGASVKMSCKASGYTFTSYNMHWVKQTPGRGLEWIGAIYPGNGDTSYNQKFKGKATLTADKSSSTAYMQLSSLTSEDSAVYYCARSTYYGGDWYFNVWGAGTTVTVSA
VL: DILLTQTPASLAVSLGQRATISCKASQSVDYDGDSYLNWYQQIPGQPPKLLIYDASNLVSGIPPRFSGSGSGTDFTLNIHPVEKVDAATYHCQQSTEDPWTFGGGTKLEIKRTVAAPQIVLSQSPAILSPSPGEKVTMTCRASSSVSYIHWFQQKPGSSPKPWIYATSNLASGVPVRFSGSGSGTSYSLTISRVEAEDAATYYCQQWTSNPPTFGGGTKLEIKR
notes: Outer AB006, inner AB001; HC vector V1 (wild-type hIgG1 constant), LC vector V2 (kappa constant); also called DVD002H; DVD002L

FACS Geometric Mean [14]: 54.5
B7: AB005 (antibody, human IgG1, kappa, V domains shown)
VH: EVQLVQSGGGLVKPGGSLRLSCAASGFTFSSYAMHWVRQAPGKGLEWVAVISYDGSNKYYADSVKGRFTISRDNSKNTLYLQMNSLRAEDTAVYYCARFSGWPNNYYYYGMDVWGQGTTVTVSS
VL: DVVMTQSPLSLPVTPGEPASISCRSSQSLLHSNGFNYVDWYLQKPGQSPHLLIYFGSYRASGVPDRFSGSGSGTDFTLKISRVEAEDVGVYYCMQALQTPPWTFGQGTKVEIRR
notes: Parent antibody

EC50 [15]: 0.26 nM and 0.69 nM
B8: AB005 (anti-RON (seq. 1) parent antibody) (antibody, human IgG1, V domains shown)
VH: B7 VH
VL: B7 VL
notes: also called AB005VH; AB005VL

FACS Geometric Mean [16]: 308 | EC50 [17]: 0.5 nM
B9: AB015 (antibody, human IgG1, kappa)
heavy: not shown
light: DIQMTQSPSSLSASVGDRVTITCRASQDVSTAVAWYQQKPGKAPKLLIYSASFLYSGVPSRFSGSGSGTDFTLTISSLQPEDFATTYYCQQSYTGTVTFGQGTKVEIKRTVAAPSVFIFPPSDEQLKSGTASVVCLLNNFYPREAKVQWKVDNALQSGNSQESVTEQDSKDSTYSLSSTLTLSKADYEKHKVYACEVTHQGLSSPVTKSFNRGEC
notes: Parent antibody; also called AB015

FACS Geometric Mean [18]: 338
B10: AB016 (antibody, human IgG1, kappa, V domains shown)
VH: EVQLVESGGGLVQPGGSLRLSCAASGFSFSSEPISWVRQAPGKGLEWVSSITGKNGYTYYADSVKGRFTISADTSKNTAYLQMNSLRAEDTAVYYCARWGKKVYGMDVWGQGTLVTVSS
VL: DIQMTQSPSSLSASVGDRVTITCRASQSISSYLAWYQQKPGKAPKLLIYGASSRASGVPSRFSGSGSGTDFTLTISSLQPEDFATYYCQQYMSVPITFGQGTKVEIKR
notes: Parent antibody

FACS Geometric Mean N-terminal [19]: 6.46
B11: DVD033 (bispecific antibody, human IgG1, kappa)
heavy: not shown
light: DVVMTQSPLSLPVTPGEPASISCRSSQSLLHSNGFNYVDWYLQKPGQSPHLLIYFGSYRASGVPDRFSGSGSGTDFTLKISRVEAEDVGVYYCMQALQTPPWTFGQGTKVEIRRTVAAPDIQMTQSPSSVSASVGDRVTITCRASQGISSWLAWYQQKPGKAPNLLIYEASSLQSGVPSRFGGSGSGTDFTLTISSLQPEDFATYYCQQANGFPWTFGQGTKVEIKRTVAAPSVFIFPPSDEQLKSGTASVVCLLNNFYPREAKVQWKVDNALQSGNSQESVTEQDSKDSTYSLSSTLTLSKADYEKHKVYACEVTHQGLSSPVTKSFNRGEC
notes: DVD-Ig; outer AB005 (RON), inner AB012 (HGF); also called RON and HGF DVD-Ig

EC50 [20]: 0.77 nM
B12: AB007 (anti-CD-80 parent antibody) (antibody, IgG1, V domains shown)
VH: QVQLQESGPGLVKPSETLSLTCAVSGGSISGGYGWGWIRQPPGKGLEWIGSFYSSSGNTYYNPSLKSQVTISTDTSKNQFSLKLNSMTAADTAVYYCVRDRLFSVVGMVYNNWFDVWGPGVLVTVSS
VL: ESALTQPPSVSGAPGQKVTISCTGSTSNIGGYDLHWYQQLPGTAPKLLIYDINKRPSGISDRFSGSKSGTAASLAITGLQTEDEADYYCQSYDSSLNAQVFGGGTRLTVLG
notes: HC vector V1 (wild-type hIgG1 constant), LC vector V3 (lambda constant); also called AB007VH; AB007VL
